Measurements taken from the supplement of paper PMC10065799, “High-throughput profiling of sequence recognition by tyrosine kinases and SH2 domains using bacterial peptide display” (eLife, 2023).

Target: Jak2 (UniProt O60674)
Experiment: phosphorylation enrichment, bacterial display (enrichment ratio); higher = better substrate or ligand; peptides without Tyr show the background
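Also: 11-residue human phosphosite peptides and single-mutation variants displayed on the E. coli surface, counted by deep sequencing, each peptide's frequency after selection divided by its frequency in the unselected input library; frequency after pTyr selection over input frequency; kinase dosed for 20-30% of maximal phosphorylation in three min.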

Chain of Jak2 (O60674 whole entry, looked up): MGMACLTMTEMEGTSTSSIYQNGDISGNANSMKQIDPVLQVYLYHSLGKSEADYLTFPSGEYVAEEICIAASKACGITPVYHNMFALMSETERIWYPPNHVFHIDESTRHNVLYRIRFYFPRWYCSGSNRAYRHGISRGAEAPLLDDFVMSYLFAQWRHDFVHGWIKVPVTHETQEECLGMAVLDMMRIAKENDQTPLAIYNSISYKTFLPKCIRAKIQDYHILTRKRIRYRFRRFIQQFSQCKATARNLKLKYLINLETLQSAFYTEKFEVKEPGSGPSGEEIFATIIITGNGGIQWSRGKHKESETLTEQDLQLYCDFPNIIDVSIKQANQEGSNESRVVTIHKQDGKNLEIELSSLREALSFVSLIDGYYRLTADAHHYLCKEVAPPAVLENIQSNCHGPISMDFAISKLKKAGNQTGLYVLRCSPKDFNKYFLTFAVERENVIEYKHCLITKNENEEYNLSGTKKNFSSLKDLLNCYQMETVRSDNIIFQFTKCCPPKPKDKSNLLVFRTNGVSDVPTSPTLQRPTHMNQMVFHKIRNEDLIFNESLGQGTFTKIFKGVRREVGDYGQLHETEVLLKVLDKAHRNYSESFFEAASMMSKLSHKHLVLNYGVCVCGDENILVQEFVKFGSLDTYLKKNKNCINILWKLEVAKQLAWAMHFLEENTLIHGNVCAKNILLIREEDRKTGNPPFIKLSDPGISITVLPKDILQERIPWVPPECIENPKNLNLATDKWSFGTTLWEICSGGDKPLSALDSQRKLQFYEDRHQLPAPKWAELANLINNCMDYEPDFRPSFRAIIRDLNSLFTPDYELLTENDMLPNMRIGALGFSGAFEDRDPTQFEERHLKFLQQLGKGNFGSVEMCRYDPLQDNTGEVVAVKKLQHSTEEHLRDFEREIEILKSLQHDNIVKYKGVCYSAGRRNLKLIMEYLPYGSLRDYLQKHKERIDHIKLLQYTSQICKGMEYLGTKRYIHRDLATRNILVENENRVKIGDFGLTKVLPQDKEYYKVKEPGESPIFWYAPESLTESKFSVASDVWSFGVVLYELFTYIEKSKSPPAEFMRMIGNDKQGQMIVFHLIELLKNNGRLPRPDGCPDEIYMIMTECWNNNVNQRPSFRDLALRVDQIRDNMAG

Row | Sequence | phosphorylation enrichment
1 | EFQKKYSDADI [CKAP5_Y1860_K1857Q_YF] | 0.594
2 | MKGDYYCYLAE [YWHAG_Y131_R132C] | 5.78
3 | PESCLYKESWL [IQGAP2_Y630] | 2.09
4 | KFLENYLNRLL [PLD2_Y169_YF] | 0.762
5 | IGEGTYGQVFK [CDK13_Y716_YF] | 0.569
6 | KRELRYMHSRV [ABCD1_Y281_G277R] | 0.525
7 | KELSSYKHLTL [SLIT2_Y776_N775S] | 0.491
8 | QMVGMYASSYM [AVPR2_Y124] | 0.659
9 | GGFSRYDEGSG [RECQL5_Y484_D480G] | 0.729
10 | AVLSLYASGST [ACTG2_Y144_R148S] | 1.09
11 | QAPPIYLDVLG [NTRK1_Y791_V790I] | 1.21
12 | FQASFYRRGDR [LTK_Y677_R673Q_YF] | 0.441
13 | QDLRLYRPHLA [BTK_Y617_G613D] | 1.17
14 | VDSNPYSRLMA [UBA5_Y53] | 0.47
15 | KTGNIYRTEYG [MRPL3_Y265_M261T] | 0.414
16 | SLIDMYSEVLA [OPA1_Y268_D273A] | 0.925
17 | EDASEYFENYI [PARP4_Y214] | 1.15
18 | DKGTLYIVEQI [PLBD1_Y375] | 1.03
19 | KDAGDYKYKAK [LRIT3_Y326_C328Y] | 0.519
20 | TSSAVYMNLAS [GATAD2B_Y317_I316V] | 0.776
21 | NIRKKYFRAIL [CHD7_Y1217_Q1214R_YF] | 0.496
22 | RGKEPYTKKAL [TTC21B_Y160] | 0.773
23 | SHSMRYFDTAV [HLA-C_Y31] | 0.492
24 | AGGTRYRYVSQ [UCN3_Y95_R91G] | 0.417
25 | AEMTGYVMTRW [MAPK13_Y182_V184M] | 1.11
26 | VATRWYRSPEL [CDKL5_Y177] | 1
27 | TSKLSYLDPRI [TOP1_Y723_N722S] | 0.939
28 | GDFFRSLAEVA [YWHAG_Y133_Y133S_YF] | 0.72
29 | DSMQSYDLDFP [UNC13B_Y243_YF] | 1.03

Target: MERTK (UniProt Q12866)
Experiment: as above

Chain of MERTK (Q12866 whole entry, looked up): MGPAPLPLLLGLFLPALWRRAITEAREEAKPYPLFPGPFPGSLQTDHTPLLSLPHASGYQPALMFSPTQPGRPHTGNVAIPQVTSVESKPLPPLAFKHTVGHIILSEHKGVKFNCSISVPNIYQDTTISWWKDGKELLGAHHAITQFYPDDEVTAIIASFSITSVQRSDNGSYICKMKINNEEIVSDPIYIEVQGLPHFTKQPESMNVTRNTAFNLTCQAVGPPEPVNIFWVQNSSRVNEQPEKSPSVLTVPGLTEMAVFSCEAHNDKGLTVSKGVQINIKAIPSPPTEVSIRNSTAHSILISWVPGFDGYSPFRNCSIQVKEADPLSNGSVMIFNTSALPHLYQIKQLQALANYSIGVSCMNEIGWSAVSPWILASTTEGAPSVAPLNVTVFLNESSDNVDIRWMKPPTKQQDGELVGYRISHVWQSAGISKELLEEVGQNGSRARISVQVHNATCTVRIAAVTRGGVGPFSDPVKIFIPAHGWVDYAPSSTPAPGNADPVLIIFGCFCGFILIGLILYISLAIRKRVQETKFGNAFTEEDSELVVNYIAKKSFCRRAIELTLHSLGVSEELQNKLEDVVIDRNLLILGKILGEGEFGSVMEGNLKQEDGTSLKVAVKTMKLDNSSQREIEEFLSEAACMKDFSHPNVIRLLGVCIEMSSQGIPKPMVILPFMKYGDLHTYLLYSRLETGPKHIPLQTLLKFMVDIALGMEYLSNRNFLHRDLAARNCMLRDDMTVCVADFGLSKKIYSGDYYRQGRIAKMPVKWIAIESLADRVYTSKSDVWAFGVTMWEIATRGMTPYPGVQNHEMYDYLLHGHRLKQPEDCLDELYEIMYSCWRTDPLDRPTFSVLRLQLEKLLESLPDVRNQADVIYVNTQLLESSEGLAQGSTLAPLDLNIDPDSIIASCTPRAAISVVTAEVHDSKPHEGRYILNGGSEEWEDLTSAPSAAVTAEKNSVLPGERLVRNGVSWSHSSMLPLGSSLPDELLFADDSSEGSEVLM

Row | Sequence | phosphorylation enrichment
30 | EFQKKYSDADI [CKAP5_Y1860_K1857Q_YF] | 0.344
31 | MKGDYYCYLAE [YWHAG_Y131_R132C] | 5.47
32 | PESCLYKESWL [IQGAP2_Y630] | 1.2
33 | KFLENYLNRLL [PLD2_Y169_YF] | 0.37
34 | IGEGTYGQVFK [CDK13_Y716_YF] | 0.428
35 | KRELRYMHSRV [ABCD1_Y281_G277R] | 0.305
36 | KELSSYKHLTL [SLIT2_Y776_N775S] | 0.404
37 | QMVGMYASSYM [AVPR2_Y124] | 2.74
38 | GGFSRYDEGSG [RECQL5_Y484_D480G] | 0.435
39 | AVLSLYASGST [ACTG2_Y144_R148S] | 0.414
40 | QAPPIYLDVLG [NTRK1_Y791_V790I] | 3.35
41 | FQASFYRRGDR [LTK_Y677_R673Q_YF] | 0.511
42 | QDLRLYRPHLA [BTK_Y617_G613D] | 0.363
43 | VDSNPYSRLMA [UBA5_Y53] | 0.524
44 | KTGNIYRTEYG [MRPL3_Y265_M261T] | 0.425
45 | SLIDMYSEVLA [OPA1_Y268_D273A] | 0.615
46 | EDASEYFENYI [PARP4_Y214] | 0.527
47 | DKGTLYIVEQI [PLBD1_Y375] | 0.355
48 | KDAGDYKYKAK [LRIT3_Y326_C328Y] | 0.32
49 | TSSAVYMNLAS [GATAD2B_Y317_I316V] | 3.69
50 | NIRKKYFRAIL [CHD7_Y1217_Q1214R_YF] | 0.555
51 | RGKEPYTKKAL [TTC21B_Y160] | 0.724
52 | SHSMRYFDTAV [HLA-C_Y31] | 0.497
53 | AGGTRYRYVSQ [UCN3_Y95_R91G] | 0.519
54 | AEMTGYVMTRW [MAPK13_Y182_V184M] | 0.364
55 | VATRWYRSPEL [CDKL5_Y177] | 0.459
56 | TSKLSYLDPRI [TOP1_Y723_N722S] | 0.539
57 | GDFFRSLAEVA [YWHAG_Y133_Y133S_YF] | 0.357
58 | DSMQSYDLDFP [UNC13B_Y243_YF] | 0.453

Target: EPHB2 (UniProt P29323)
Experiment: as above

Chain of EPHB2 (P29323 whole entry, looked up): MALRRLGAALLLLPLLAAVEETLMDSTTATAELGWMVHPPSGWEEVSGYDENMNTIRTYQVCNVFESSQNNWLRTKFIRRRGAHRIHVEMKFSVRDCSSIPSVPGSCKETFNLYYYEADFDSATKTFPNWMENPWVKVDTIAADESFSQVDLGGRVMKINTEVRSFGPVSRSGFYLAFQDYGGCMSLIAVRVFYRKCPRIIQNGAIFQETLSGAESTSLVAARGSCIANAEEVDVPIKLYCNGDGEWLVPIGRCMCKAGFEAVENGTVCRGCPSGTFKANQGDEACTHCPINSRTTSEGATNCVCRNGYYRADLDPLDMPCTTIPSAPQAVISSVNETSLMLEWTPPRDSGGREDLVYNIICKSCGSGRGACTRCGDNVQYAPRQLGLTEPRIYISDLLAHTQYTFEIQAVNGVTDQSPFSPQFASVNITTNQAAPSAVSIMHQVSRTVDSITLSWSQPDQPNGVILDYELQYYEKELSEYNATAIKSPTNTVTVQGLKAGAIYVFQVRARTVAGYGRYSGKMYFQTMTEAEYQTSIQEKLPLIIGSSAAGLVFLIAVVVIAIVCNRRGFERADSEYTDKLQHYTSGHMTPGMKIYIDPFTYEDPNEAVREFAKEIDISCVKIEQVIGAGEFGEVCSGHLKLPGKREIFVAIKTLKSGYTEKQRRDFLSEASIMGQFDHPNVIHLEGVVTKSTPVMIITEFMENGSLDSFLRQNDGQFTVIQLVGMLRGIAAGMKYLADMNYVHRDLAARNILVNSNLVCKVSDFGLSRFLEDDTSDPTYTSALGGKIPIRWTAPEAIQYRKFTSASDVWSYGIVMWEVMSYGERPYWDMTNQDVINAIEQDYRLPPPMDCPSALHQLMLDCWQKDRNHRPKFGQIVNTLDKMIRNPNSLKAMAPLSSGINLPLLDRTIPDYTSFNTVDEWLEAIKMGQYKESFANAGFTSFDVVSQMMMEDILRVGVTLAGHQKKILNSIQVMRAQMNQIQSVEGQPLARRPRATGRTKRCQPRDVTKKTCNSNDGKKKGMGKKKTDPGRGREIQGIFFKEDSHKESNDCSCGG

Row | Sequence | phosphorylation enrichment
59 | EFQKKYSDADI [CKAP5_Y1860_K1857Q_YF] | 0.383
60 | MKGDYYCYLAE [YWHAG_Y131_R132C] | 5.89
61 | PESCLYKESWL [IQGAP2_Y630] | 1.2
62 | KFLENYLNRLL [PLD2_Y169_YF] | 0.642
63 | IGEGTYGQVFK [CDK13_Y716_YF] | 1.18
64 | KRELRYMHSRV [ABCD1_Y281_G277R] | 0.534
65 | KELSSYKHLTL [SLIT2_Y776_N775S] | 0.38
66 | QMVGMYASSYM [AVPR2_Y124] | 1.09
67 | GGFSRYDEGSG [RECQL5_Y484_D480G] | 0.558
68 | AVLSLYASGST [ACTG2_Y144_R148S] | 0.722
69 | QAPPIYLDVLG [NTRK1_Y791_V790I] | 3.26
70 | FQASFYRRGDR [LTK_Y677_R673Q_YF] | 0.486
71 | QDLRLYRPHLA [BTK_Y617_G613D] | 0.467
72 | VDSNPYSRLMA [UBA5_Y53] | 0.488
73 | KTGNIYRTEYG [MRPL3_Y265_M261T] | 0.421
74 | SLIDMYSEVLA [OPA1_Y268_D273A] | 0.869
75 | EDASEYFENYI [PARP4_Y214] | 0.66
76 | DKGTLYIVEQI [PLBD1_Y375] | 0.525
77 | KDAGDYKYKAK [LRIT3_Y326_C328Y] | 0.366
78 | TSSAVYMNLAS [GATAD2B_Y317_I316V] | 0.65
79 | NIRKKYFRAIL [CHD7_Y1217_Q1214R_YF] | 0.6
80 | RGKEPYTKKAL [TTC21B_Y160] | 0.698
81 | SHSMRYFDTAV [HLA-C_Y31] | 0.329
82 | AGGTRYRYVSQ [UCN3_Y95_R91G] | 0.525
83 | AEMTGYVMTRW [MAPK13_Y182_V184M] | 0.578
84 | VATRWYRSPEL [CDKL5_Y177] | 0.516
85 | TSKLSYLDPRI [TOP1_Y723_N722S] | 0.427
86 | GDFFRSLAEVA [YWHAG_Y133_Y133S_YF] | 0.503
87 | DSMQSYDLDFP [UNC13B_Y243_YF] | 0.546

Target: Hck (UniProt P08631)
Experiment: as above

Chain of Hck (P08631 whole entry, looked up): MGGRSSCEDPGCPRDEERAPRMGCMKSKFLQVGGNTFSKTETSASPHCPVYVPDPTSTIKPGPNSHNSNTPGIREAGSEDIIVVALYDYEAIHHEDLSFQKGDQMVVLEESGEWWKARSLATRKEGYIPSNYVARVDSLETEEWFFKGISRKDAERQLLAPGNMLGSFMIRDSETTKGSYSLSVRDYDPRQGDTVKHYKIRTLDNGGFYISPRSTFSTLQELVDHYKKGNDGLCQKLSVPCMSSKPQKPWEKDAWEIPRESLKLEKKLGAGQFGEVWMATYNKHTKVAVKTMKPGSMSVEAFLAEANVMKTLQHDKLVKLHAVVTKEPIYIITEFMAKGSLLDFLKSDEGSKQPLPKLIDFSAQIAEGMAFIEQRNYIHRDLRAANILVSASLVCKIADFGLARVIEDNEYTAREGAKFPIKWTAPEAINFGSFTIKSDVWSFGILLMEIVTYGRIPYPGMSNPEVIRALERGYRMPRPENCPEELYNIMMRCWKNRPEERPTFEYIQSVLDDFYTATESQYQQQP

Row | Sequence | phosphorylation enrichment
88 | EFQKKYSDADI [CKAP5_Y1860_K1857Q_YF] | 0.487
89 | MKGDYYCYLAE [YWHAG_Y131_R132C] | 1.48
90 | PESCLYKESWL [IQGAP2_Y630] | 1.5
91 | KFLENYLNRLL [PLD2_Y169_YF] | 0.415
92 | IGEGTYGQVFK [CDK13_Y716_YF] | 8.97
93 | KRELRYMHSRV [ABCD1_Y281_G277R] | 0.381
94 | KELSSYKHLTL [SLIT2_Y776_N775S] | 0.445
95 | QMVGMYASSYM [AVPR2_Y124] | 1.3
96 | GGFSRYDEGSG [RECQL5_Y484_D480G] | 0.468
97 | AVLSLYASGST [ACTG2_Y144_R148S] | 0.638
98 | QAPPIYLDVLG [NTRK1_Y791_V790I] | 2.11
99 | FQASFYRRGDR [LTK_Y677_R673Q_YF] | 0.501
100 | QDLRLYRPHLA [BTK_Y617_G613D] | 0.548
101 | VDSNPYSRLMA [UBA5_Y53] | 1.72
102 | KTGNIYRTEYG [MRPL3_Y265_M261T] | 0.496
103 | SLIDMYSEVLA [OPA1_Y268_D273A] | 0.873
104 | EDASEYFENYI [PARP4_Y214] | 0.597
105 | DKGTLYIVEQI [PLBD1_Y375] | 0.413
106 | KDAGDYKYKAK [LRIT3_Y326_C328Y] | 0.346
107 | TSSAVYMNLAS [GATAD2B_Y317_I316V] | 4.17
108 | NIRKKYFRAIL [CHD7_Y1217_Q1214R_YF] | 0.451
109 | RGKEPYTKKAL [TTC21B_Y160] | 0.436
110 | SHSMRYFDTAV [HLA-C_Y31] | 0.424
111 | AGGTRYRYVSQ [UCN3_Y95_R91G] | 0.435
112 | AEMTGYVMTRW [MAPK13_Y182_V184M] | 0.561
113 | VATRWYRSPEL [CDKL5_Y177] | 0.482
114 | TSKLSYLDPRI [TOP1_Y723_N722S] | 0.446
115 | GDFFRSLAEVA [YWHAG_Y133_Y133S_YF] | 0.405
116 | DSMQSYDLDFP [UNC13B_Y243_YF] | 0.461
